Assay in all cases: cell-based or functional assay
Experiment [1] deals with ecotropic MLV receptor (mouse) (UniProt Q09143).
Experiment [2] concerns the target amphotropic MLV receptor on NIH3T3 mouse fibroblasts (mouse) (UniProt Q80UP8).
Experiment [3] addresses amphotropic receptor on human B and T cell lines (K422 and Jurkat) (human) (UniProt Q08357).
Experiment [4] has as its target human epidermal growth factor receptor (human) (UniProt P00533).
Experiment [5] has as its target EGF receptor on NIH3T3 cells and NIH3T3 clones transfected with EGF receptor expression constructs.

Sequence of amphotropic MLV receptor on NIH3T3 mouse fibroblasts (mouse) (Q80UP8 whole entry): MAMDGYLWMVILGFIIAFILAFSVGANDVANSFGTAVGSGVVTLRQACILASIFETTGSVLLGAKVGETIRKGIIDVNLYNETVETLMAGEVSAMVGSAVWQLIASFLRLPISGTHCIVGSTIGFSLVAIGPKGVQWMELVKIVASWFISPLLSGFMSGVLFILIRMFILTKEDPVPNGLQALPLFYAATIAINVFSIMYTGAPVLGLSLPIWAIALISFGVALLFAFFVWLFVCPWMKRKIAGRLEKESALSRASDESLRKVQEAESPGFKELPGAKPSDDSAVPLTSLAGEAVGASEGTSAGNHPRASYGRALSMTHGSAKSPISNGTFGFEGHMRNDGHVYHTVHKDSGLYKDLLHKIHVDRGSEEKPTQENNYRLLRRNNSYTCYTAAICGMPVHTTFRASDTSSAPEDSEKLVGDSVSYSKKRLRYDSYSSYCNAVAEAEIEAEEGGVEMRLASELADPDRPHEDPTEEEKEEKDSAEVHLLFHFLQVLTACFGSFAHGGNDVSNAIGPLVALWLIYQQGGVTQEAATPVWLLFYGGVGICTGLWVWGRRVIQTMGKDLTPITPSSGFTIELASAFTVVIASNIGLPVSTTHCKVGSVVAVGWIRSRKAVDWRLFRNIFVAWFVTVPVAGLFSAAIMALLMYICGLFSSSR
Sequence of Moloney MLV ecotropic envelope glycoprotein (control envelope MO) (P03385 34-665 limits assumed): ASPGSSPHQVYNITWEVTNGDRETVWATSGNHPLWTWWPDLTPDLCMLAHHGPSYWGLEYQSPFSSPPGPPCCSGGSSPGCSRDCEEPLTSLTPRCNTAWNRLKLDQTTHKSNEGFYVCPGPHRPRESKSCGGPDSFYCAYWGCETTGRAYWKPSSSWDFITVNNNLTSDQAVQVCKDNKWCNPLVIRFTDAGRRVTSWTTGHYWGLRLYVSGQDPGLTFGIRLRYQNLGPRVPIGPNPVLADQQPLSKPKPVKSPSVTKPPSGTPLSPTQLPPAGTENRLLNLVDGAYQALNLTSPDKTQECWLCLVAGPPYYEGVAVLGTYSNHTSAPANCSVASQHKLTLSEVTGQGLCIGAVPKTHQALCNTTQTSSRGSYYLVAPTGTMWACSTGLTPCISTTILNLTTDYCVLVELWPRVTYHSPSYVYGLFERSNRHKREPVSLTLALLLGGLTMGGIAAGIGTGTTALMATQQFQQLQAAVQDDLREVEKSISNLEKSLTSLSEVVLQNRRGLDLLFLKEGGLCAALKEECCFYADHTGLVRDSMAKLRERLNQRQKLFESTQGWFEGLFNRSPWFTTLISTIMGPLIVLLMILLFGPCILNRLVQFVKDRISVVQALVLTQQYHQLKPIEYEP
Sequence of ecotropic MLV receptor (mouse) (Q09143 whole entry): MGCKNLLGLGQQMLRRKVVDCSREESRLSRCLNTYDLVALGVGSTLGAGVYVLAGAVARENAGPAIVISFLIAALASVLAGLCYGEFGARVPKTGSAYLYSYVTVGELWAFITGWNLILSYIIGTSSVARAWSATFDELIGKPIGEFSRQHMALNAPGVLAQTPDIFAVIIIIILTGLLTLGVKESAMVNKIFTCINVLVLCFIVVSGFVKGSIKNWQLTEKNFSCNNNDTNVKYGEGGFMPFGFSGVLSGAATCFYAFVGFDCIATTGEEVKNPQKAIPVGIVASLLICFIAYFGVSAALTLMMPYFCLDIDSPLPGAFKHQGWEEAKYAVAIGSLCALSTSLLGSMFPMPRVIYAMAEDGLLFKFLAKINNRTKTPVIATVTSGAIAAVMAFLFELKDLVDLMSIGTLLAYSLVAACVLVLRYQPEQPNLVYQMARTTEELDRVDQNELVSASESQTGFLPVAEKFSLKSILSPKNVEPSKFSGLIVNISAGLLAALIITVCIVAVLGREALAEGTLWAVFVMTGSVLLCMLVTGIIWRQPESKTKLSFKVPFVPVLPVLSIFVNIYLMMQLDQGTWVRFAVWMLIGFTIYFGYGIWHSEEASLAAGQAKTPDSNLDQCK
Sequence of amphotropic receptor on human B and T cell lines (K422 and Jurkat) (human) (Q08357 whole entry): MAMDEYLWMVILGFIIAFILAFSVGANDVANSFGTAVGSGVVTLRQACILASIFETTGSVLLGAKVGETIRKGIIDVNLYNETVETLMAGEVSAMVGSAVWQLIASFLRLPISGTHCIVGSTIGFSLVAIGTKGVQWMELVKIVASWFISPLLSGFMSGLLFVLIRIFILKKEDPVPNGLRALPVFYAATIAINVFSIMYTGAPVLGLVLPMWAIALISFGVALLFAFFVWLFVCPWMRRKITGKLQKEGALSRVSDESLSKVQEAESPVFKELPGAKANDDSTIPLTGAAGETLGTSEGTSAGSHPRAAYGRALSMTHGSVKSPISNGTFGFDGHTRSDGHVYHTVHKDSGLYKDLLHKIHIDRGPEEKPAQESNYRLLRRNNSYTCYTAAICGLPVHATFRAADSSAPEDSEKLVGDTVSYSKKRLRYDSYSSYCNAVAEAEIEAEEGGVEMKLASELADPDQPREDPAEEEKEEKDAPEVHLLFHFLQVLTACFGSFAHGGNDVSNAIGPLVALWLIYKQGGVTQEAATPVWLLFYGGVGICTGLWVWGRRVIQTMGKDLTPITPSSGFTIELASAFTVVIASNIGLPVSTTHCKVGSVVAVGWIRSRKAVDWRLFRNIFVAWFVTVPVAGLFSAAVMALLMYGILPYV

As to “Moloney MLV ecotropic envelope glycoprotein (control envelope MO) (from UniProt P03385 34-665)”, in experiment [1], the titre on 3T3 (NIH3T3), lacZ-EFU/ml is 1e+07 lacZ-EFU/ml; the titre on 3T3/A (GP+EAM12, expressing amphotropic envelope), lacZ-EFU/ml was determined as 1e+07 lacZ-EFU/ml; the titre on 3T3/E (psi2, expressing MoMLV envelope), lacZ-EFU/ml was less than 1 lacZ-EFU/ml; the titre on EJ.A1 cells, lacZ-EFU/ml stood at 1e+06 lacZ-EFU/ml.
In the case of “amphotropic 4070A MLV envelope glycoprotein (control envelope A)”, in experiment [2], the titre on 3T3 (NIH3T3), lacZ-EFU/ml (row shifted by one column) stood at 1e+07 lacZ-EFU/ml; the titre on 3T3/A (GP+EAM12, expressing amphotropic envelope), lacZ-EFU/ml (row shifted by one column) came out at 100 lacZ-EFU/ml; the titre on 3T3/E (psi2, expressing MoMLV envelope), lacZ-EFU/ml (row shifted by one column) was found to be 1e+07 lacZ-EFU/ml.
For the substance “chimaeric EGF-4070A (EA) envelope glycoprotein (human EGF fused to the amphotropic 4070A MLV envelope at position +5) (from UniProt P03385 34-39; P01133 23-1207)”, in experiment [3], the titre on Jurkat cells (devoid of EGF.R), lacZ-EFU/ml was determined as 1000 lacZ-EFU/ml and the titre on K422 cells (devoid of EGF.R), lacZ-EFU/ml was found to be 10000 lacZ-EFU/ml. In experiment [4], the inhibition of viral infection by EGF receptor expression on NR6 cells is 100 fold; the titre on NR6-wt hEGF.R cells, + rEGF (pre-incubated with recombinant EGF), lacZ-EFU/ml is 500000 lacZ-EFU/ml; the titre on NR6-wt hEGF.R cells, - rEGF, lacZ-EFU/ml turned out to be 3000 lacZ-EFU/ml; the titre reduction on EGF receptor-positive human cells compared to control viruses with unmodified 4070A envelopes is less than 1e+07 fold.
In experiment [5], “chimaeric EMO envelope glycoprotein (human EGF inserted in the Moloney MLV envelope SU glycoprotein at amino acid +6) (from UniProt P03385 34-39; P01133 23-1207; P03385 40-469)” yielded a reduction of virus titre by EGF.R expression on mouse fibroblasts of less than 1000 fold; a titre on NIH3T3 cells with EGFR No. 10,000, lacZ-EFU/ml of 100000 lacZ-EFU/ml; a titre on NIH3T3 cells with EGFR No. 80,000, lacZ-EFU/ml of 10000 lacZ-EFU/ml; a titre on NIH3T3 cells with EGFR No. 400,000, lacZ-EFU/ml of 1000 lacZ-EFU/ml. In experiment [1], this substance displayed a titre on 3T3 (NIH3T3), lacZ-EFU/ml of 100000 lacZ-EFU/ml; a titre on 3T3/A (GP+EAM12, expressing amphotropic envelope), lacZ-EFU/ml of 100000 lacZ-EFU/ml; a titre on 3T3/E (psi2, expressing MoMLV envelope), lacZ-EFU/ml of less than 1 lacZ-EFU/ml. For the same substance, in experiment [4], the titre on A431 cells with chloroquine, lacZ EFU/ml was 225 lacZ EFU/ml; the titre on NR6-wt hEGF.R cells, + rEGF (pre-incubated with recombinant EGF), lacZ-EFU/ml was determined as 100000 lacZ-EFU/ml; the titre on NR6-wt hEGF.R cells, - rEGF, lacZ-EFU/ml is 1000 lacZ-EFU/ml; the titre on TE671 cells with chloroquine, lacZ EFU/ml stood at 46 lacZ EFU/ml.

The values above are taken from patent EP0842426B1.
